From a protein production outcome set (Wang et al. 2014)

Test: label from the status in PepcDB records
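Note: failed if final PepcDB status was selected cloned or expressed and not failed if soluble or beyond.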

Row | Sequence | protein production
1 | MKTVVIGAGLGGLLSAARLSKAGHEVEVFERLPITGGRFTNLSYKGFQLSSGAFHMLPNGPGGPLACFLKEVEASVNIVRSEMTTVRVPLKKGNPDYVKGFKDISFNDFPSLLSYKDRMKIALLIVSTRKNRPSGSSLQAWIKSQVSDEWLIKFADSFCGWALSLKSDEVPVEEVFEIIENMYRFGGTGIPEGGCKGIIDALETVISANGGKIHTGQEVSKILIENGKAAGIIADDRIHDADLVISNLGHAATAVLCSEALSKEADAAYFKMVGTLQPSAGIKICLAADEPLVGHTGVLLTPYTRRINGVNEVTQADPELAPPGKHLTMCHQYVAPENVKNLESEIEMGLEDLKEIFPGKRYEVLLIQSYHDEWPVNRAASGTDPGNETPFSGLYVVGDGAKGKGGIEVEGVALGVMSVMEKVLGLEHHHHHH | not failed
2 | MKTWIFICMSIAMLLWFLSTLRRKPSQKKGCIDAIIPAYNEGPCLAQSLDNLLRNPYFCRVICVNDGSTDNTEAVMAEVKRKWGDRFVAVTQKNTGKGGALMNGLNYATCDQVFLSDADTYVPPDQDGMGYMLAEIERGADAVGGIPSTALKGAGLLPHIRATVKLPMIVMKRTLQQLLGGAPFIISGACGMFRTDVLRKFGFSDRTKVEDLDLTWTLVANGYRIRQANRCIVYPQECNSPREEWRRWRRWIVGYAVCMRLHKRLLFSRFGIFSIFPMLLVVLYGVGIYLTTWFNEFITTGPHGVVLAMFPLIWVGVVCVIGAFSAWFHRCWLLVPLAPLSVVYVLLAYAIWIIYGLIAFFTGREPQRDKPTRYSALVEASTAYSQPSVTGTEKLSEA | failed
3 | MKVAGDKIKQARKLKKITQSELANGICTQATISNIENRNLCDSLDIFSSICLRLDLEVEECMMISEEKKIENLLNKVEDLSLRLFHLEAYNLLQEVPEGLILSNNELTTKLLYYKGITCLLGKKDKAEALFYLYRGAEIDRKVNIYNILSLNALGTLYELEKDMRKAQVYYEKSLQELEQFKLECSLERCRIYYNSAKFYSEMKDYQKSVILSEKGIQICRDKHSIYLLDYLLYEKAFNKQMLGEDTADDYRQAYYFTQFFGNTEVLQYIEKDMKAFNISY | failed
4 | MKVAIMGAGAVGCYYGGMLARAGHEVILIARPQHVQAIEATGLRLETQSFDEQVKVSASSDPSAVQGADLVLFCVKSTDTQSAALAMKPALAKSALVLSLQNGVENADTLRSLLEQEVAAAVVYVATEMAGPGHVRHHGRGELVIEPTSHGANLAAIFAAAGVPVETSDNVRGALWAKLILNCAYNALSAITQLPYGRLVRGEGVEAVMRDVMEECFAVARAEGVKLPDDVALAIRRIAETMPRQSSSTAQDLARGKRSEIDHLNGLIVRRGDALGIPVPANRVLHALVRLIEDKQQHG | not failed
5 | MKVDDTEEASQKPEDILAQGKDEARLSLEERRKLFQSKGLSAEESLVSVSTEDTLFQKEEDSKVYPLSMTWSFGWNSSLPVYYMREDRRVILYTCAHTAIMYDVVRNTQYHLQGHPNIISCLCVSEDRRWIATADEGPDCLIIIWDSFTGIPVHTIFDSCPEGNGMRSIAITRDSKFLATISDSATQKVCIWKWTLAVETPACTLELPKEYGFQDNLVFNPANNKELVSNSKTQAIYYCWFEDKGILAHSAPVLTEKTFNKLVGKFSQSVFHLKLPQVLSATKEGKLVVWDIHYPSSTSSSAISAFPFIKPRKLVHLQKEAITVLMTIDSYIVTGDIKGNIKFYDHTLSVVNWYSNFKLGAIRTLSFSKTIPSLPTEKSNLPTDCTLRGDLFVVRNFIIGTFDATVYHMTVDGTKLEKLFVEPRDAVYAVSCHPYQPLIAVGSVCGMIKVWDFEKKVYLFSRTFEKGLGVQCLTYNPEGALLGAGFTEGTVYILDAMSLENESPEPFKYSKSSVSHCCFSHDSNYMATADVNFTVAVYMVVVKNGQRVWEYLARLRSHQNSIQSLLFGVHLDSNEPRLLSLGKDRFLIEYNLVKSCKDHLDVLDVHRTDQGNYPTCMIWYPPLTKELFLLICNSGYKVKLFNATTKMCRKTLLGPAYGSPIEHAQVLPVKSTLELQKRYLVFINKDKVGLQILPVDGNPHKTCAIVCHPNGVAGMALSYDGRFAFTAGGQDRSVVQWKINLGALEAAVSLGGEDLTPFYGLVSGGREGKFYRELEDYFYYSQIRSQGIDTMETRQVSEHICLSELPFVMRAIGFYPSEEKIEDMFNEIKFSEYVETGKLIDKINLPDFLKVYLNHRPPFGNTMDGIQNSFNVLGYTNSEGKKAIRREDFLNLLLTKGEHMTEEEMIDCFSTLFGLTPEGWKSEPAATCINGPEICLQKELPEEITAEIFTTEILGLTLSDSSEQLIQ | failed
6 | MKVFDVHKFDMKKEQDFLQVQFNLKNRINLSPTIHPDSINTGAGVDLAYWEQDGEPYGVCCIIVIDADTKEVIEKVHSMGRISVPYVSGFLAFRELPLIIEAAKKLETEPDVFLFDGNGYLHYNHMGVATHAAFFLGKPTIGIAKTYLKIKGCDFVTPEIEVGAYTDIIIDGEVYGRALRTRRDVKPIFLSCGNYIDLDSSYQITMSLINQESRLPIPVRLADLETHVLRTFYQKNHVLEHHHHHH | not failed
7 | MKVFITGGTGFVGSAVVQELVANGFEVVGLARSETSAQKLISWGAQPVRGSLTSLSTLATAAAQADAIIHLGFNNDFRHFFQAGAMDRRAIETMGRAISGTNKPLVVTYGTTGIRKHVETEHEVADTGLLKWLTPRKSEIVARQLMAQNINAFVVRLSPAVHGAGDMGFTRTVIERAKKSHRAEYFGLGTHAWSAVHRLDAAHLFYLVTMYGLEHPTTNERVFNAVAEESITIAAIARTISRKLNVPLKAKYNPLSFGDTAMLYLINCPTSSQLTRQILGWVPVQPDLLTDISSSRYLEHHHHHH | failed
8 | MKVFTEKIPNIPWEERPEGYTGPVWRYSKNPIIGRNPVPKGARVFNSAVVPYNGEFVGVFRIDHKNTRPFLHFGRSKDGINWEIEPEEIQWVDVNGEPFQPSYAYDPRVVKIEDTYYITFCTDDHGPTIGVGMTKDFKTFVRLPNAYVPFNRNGVLFPRKINGKYVMLNRPSDNGHTPFGDIFLSESPDMIHWGNHRFVLGRSSYNWWENLKIGAGPYPIETSEGWLLIYHGVTLTCNGYVYSFGAALLDLDDPSKVLYRSRYYLLTPEEEYETVGFVPNVVFPCAALCDADTGRVAIYYGAADTHVALAFGYIDEIVDFVKRNSM | not failed
9 | MKVIEVTHPIQSNQFITENVAMAFGFFDGMHRGHDKVFQVLDEKAKEHQLKKAVMTFDPHPSVVLNPERKRTTYLTPLSDKLEMIAEHGIDYCIVINFSSRFANVTSDDFIKNYIINNHVKEVIAGFDFTFGKFGKGNMTVLQESKAFNTTIVGKQEMDSEKISTTAIRQALTDGHLQKANDELGYIYRIKGTVVQGEKRGRTIGFPTANVQPSDDYVLPKKGVYAVSMEIGPESKLHRGVANVGVKPTFHDPTRAELVIEVNIFDFNENIYGERVTVYWHHFLRPEVKFDGIDPLVKQMNEDKAQAKHLLSIDFDDDISYNI | failed
10 | MKVIILGSGSYSGTPKPLCTCENCTRARINPAFRRTRFSVYIEGGILIDPGPDLHYHLEKLNKEVETILITHAHFDHIFGLPDAQVFKKLTIASNPLGIKVARSLAMLAFNSEAPLGNDWDYVELKFWNEYKVNGVKVIHFPVVHSIEMAGGFLIERKNKTVAITGDTGPEIIRDSEVIDLIKGSDLLISEMTHKESIPKTHLGVNDAIELAKIVKAEQTVFAHISHSNYPQEILEKKVREAKISGIVARDFTIIEI | failed
11 | MKVIKGLTAGLIFLFLCACGGQQIKDPLNYEVEPFTFQNQDGKNVSLESLKGEVWLADFIFTNCETICPPMTAHMTDLQKKLKAGNIDVRIISFSVDPENDKPKQLKKFAANYPLSFDNWDFLTGYSQSEIEEFALKSFKAIVKKPEGEDQVIHQSSFYLVGPDGKVLKDYNGVENTPYDDIISDVKSASTLK | not failed
12 | MKVKIGLKCSDCEDINYSTTKNAKTNTEKLELKKFCPRENKHTLHKEIKLKS | failed
13 | MKVLCINPPDDLAALLGDGASFVSTMEPLGLLYVAAACREAGHEVAFIDAYAENLDEETLMRRIRDAAPQVVSFTSFTSNGGFLYTFGRRLRQEMPGVHVLLGNVHATIYARQYLASGCCDVVVRGEGEEVMPALLRVLEEGGDLATVPSIAYVRDGVVAETGGHAFVRDLSTLPLPARDLTRKELYSFARTPNFSLYRTPEGKTEKHLFSSRGCVNRCTFCVAHKNIGIRVRPIDSVIGEVDLLLREYDAGYIFFCDSLFTSRKKRIIELSDALRHHFPGLRWGCEAHVNTIDEDSVRAMAAGGCVDMNFGIESGVDRLLTAVNKRQTTAQIADAIRMVKRVSRINAIGLFILGLPGERPEDSDATIDFACSLPLDMAQFSILTPYPGSPIFEQLRAEGIIDDGVRPGDTLDPEVWRRYSSYASFSDNKPIWVTPEHSVEGLLAAQKRALRRFYLRPRPFLIQLRRLRPADLLDTARTFFKTFF | failed
14 | MKVLTDLQKRIFAIVKKENGKPIPPGIVVRMMENQAGFPGKQQVYRAIDDLLEWHIFRKSGGATNQLLINYELADPVLDQKFQGILNLGNKNTGFVRPLDDDKTVYYIHFSNLAGALDGDLVEFCPLDKPQVGDKFDAAVLKIVKRSRVLYAGNFLIEYSDFGQEFRIVADNPRFYLTPIVNKASVPAELESNTKVAFQIDEYDPANNLCKVSIQQILGNNDEPLINLKAIMLDHSIVFEDNDVVEQQAAKLQFDEKEQSKPYRKDLTELAFVTIDPATSKDLDDAIYVKRTDKGFVLYVAIADVAYYVQRNSELDIEARHKTSSIYLPGYYVVPMLPERLSNELCSLNPNEKRYVVVCELNFDHEARLNFSEVYPATIVSQRRFAYSEVNDWLEDSDALKDESATVLESLKAGFTLSELIAEQRKKKGTIDLSHSETEVVVDQNYYPIEIRFLTHGKAETMIENLMVVANEAVAWTLTNHKVHLPYRVHPRPSKKKLQMLLENIVELKITQPNFVLDTVTSTQIAAWLKENKDNPSYDIFVILLLRTLGKAFYIVNPLIHFSIGSHHYTHFTSPIRRYADLTVHRLLWMNLFTPERFTDTEREQLNAELEQICETINDTEIKINGCERTANDYLTTLYLSKQVGQTFHGFISAITSFGIFMRMDENNFDGLIKITSIPEDFFVFEKDRMVLRGKRTNKVFRIGDRLTAKLTEIDTVQKRAILTLV | failed
15 | MKVRADFAFEKVARDWFVRWSKGRSEKYAGQVMRNFERWVFPAIGNLDIRQVRTADVVGCLRVMEARGIVDTLRKTKNSLKMVFAFAVGSGMMEINPVAQIGSGVFERLEHHHHHH | not failed
16 | MKVSIIVPCYSVASKLPRCVHNLLAQTFTDWELILIDDGSTDNTWDICNSFTKNNAHIHAVHKENGGVSSARNTGIEIAKGEFITFIDSDDYVKPDYLQKLVEGQEADLVLCGFRSSTGIDFTPEPQYLIGDDLSKNIQAIVENDYLLYSPWCKLFRRDIIQKHQHRFDPEIRLGEDTIFCYKYLLYCSSIKVVASNSYFYDGVWGGYKKYVLTRQEVEYLDKAEITTLHDINQHFNCRIDLTYRGYHVAMLKGLYEKFRDYDTFEMYTRTHDVLPPEHFFANHKLSYIFWGIVELETLYVDKEYCAGKLFMQRLHHFFTIPTNQLLSYSYKMRLIHYLVKSKHYTMAHVLLIFLSILKHLEHHHHHH | failed
17 | MKVVGLDLGGTKIAAGVFDGKRLLSKVVVPTPKEGGERVAEALAEAAERAEREAGVRGEAIGLGTPGPLDFRRGVIRFAPNIPGVQDFPIRRILEEATGRPVFLENDANAAALAEHHLGAAQGEESSLYLTVSTGIGGGVVLGGRVLRGERGQGGELGHLTLLPGGPACGCGLEGCLEALAAGRALERDATYAFQRPVDTRELFRLFQAGDPKAERLVLQAARYVGIGLASLVKAFDPGVVVLGGGVALNAPEGYWEALLEAYRRYLQGWEAPPLRRARLGAEAGLLGAALTAYLEVKDGSG | not failed
18 | MKVYFDDIYVSTARQFELVDITDQVEQIVEKSGIKNGICLIFVAHSTAAIVANEHERGLMEDILTKIKEFTEPSRSWKHNLIDDNAHAHLGATFLGAERVFPVREGKLVRGTWQNIFLVELDGPRSERHITVEILGE | not failed
